Positions count from the first letter of the chain named.
T1: recombinant human midkine (huMK) (human, UniProt P21741 21-143)
T1 construct: also called human MK; Human MK
T1 sequence (looked up): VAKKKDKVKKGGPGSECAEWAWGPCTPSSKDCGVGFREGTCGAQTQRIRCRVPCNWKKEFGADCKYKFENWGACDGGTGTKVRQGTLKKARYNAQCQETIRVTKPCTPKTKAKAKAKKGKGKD

T2: recombinant murine midkine (muMK) (murine, UniProt P12025 23-140)
T2 construct: also called murine MK; Murine MK
T2 sequence (looked up): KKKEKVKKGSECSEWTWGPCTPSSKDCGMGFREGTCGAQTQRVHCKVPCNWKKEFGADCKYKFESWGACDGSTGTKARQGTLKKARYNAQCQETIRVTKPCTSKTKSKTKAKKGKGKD

B1: IP14-H2L6 (antibody, V domains shown)
VH: QVQLVQSGAEVKKPGASVKVSCKASGQSFSSYWMNWVRQAPGQGLEWIGMIHPSDSETILNQKFKDKATLTVDISTSTAYMELSSLRSEDTAVYYCSSWSAKRGDFWGQGTLVTVSS
VL: EIVLTQSPSTLSASVGDRVNITCRASESISNNLHWYQQKPHKAPKLLIYYASQSISGVPSRFSGSGSGTEFNLTISSVQPDDFATYYCQQSNSWPLTFGQGTKVEIKR
notes: also called Hv2 Lv6
B2: IP14 Hv0 Lv6 (antibody, V domains shown)
VH: QVQLQQPGAELVRPGHSVKLSCKASGQSFSSYWMNWVRQRPGQGLEWIGMIHPSDSETILNQKFKDKATLTVDISSNTAYMQLSSPTSEDSAVYFCSSWSAKRGDFWGQGTTLTVSS
VL: B1 VL
B3: IP14-H2L4 (antibody, V domains shown)
VH: B1 VH
VL: EIVLTQSPDFQSVTPKEKVNITCRASESISNNLHWYQQKPHQSPKLLIYYASQSISGVPSRFSGSGSGTDFNLTINSVEAEDAATYYCQQSNSWPLTFGGGTKLEIKR
notes: also called Hv2 Lv4
B4: IP14-H1L6 (antibody, V domains shown)
VH: B1 VH with A16H, L86P
VL: B1 VL
notes: also called Hv1 Lv6
B5: IP14-H1L4 (antibody, V domains shown)
VH: B1 VH with A16H, L86P
VL: B3 VL
notes: also called Hv1 Lv4
B6: IP14-H5L2 (antibody, V domains shown)
VH: QVQLVQSGGGLVQPGGSLRLSCAASGQSFSSYWMNWVRQAPGQGLEWIGMIHPSDSETILNQKFKDKATLTVDISKNTAYLQMNSLRAEDTAVYYCSSWSAKRGDFWGQGTLVTVSS
VL: EIVLTQSPATLSLSPGERATLSCRASESISNNLHWYQQKPGQAPRLLIKYASQSISGIPARFSGSGPGTDFTLTISSVEPEDFAVYYCQQSNSWPLTFGGGTKLEIKR
notes: also called Hv5 Lv2
B7: IP14-H5L6 (antibody, V domains shown)
VH: B6 VH
VL: B1 VL
notes: also called Hv5 Lv6
B8: IP14 Hv0 Lv2 (antibody, V domains shown)
VH: B2 VH
VL: B6 VL
B9: IP14-H5L4 (antibody, V domains shown)
VH: B6 VH
VL: B3 VL
notes: also called Hv5 Lv4
B10: IP14-H2L2 (antibody, V domains shown)
VH: B1 VH
VL: B6 VL
notes: also called Hv2 Lv2
B11: IP14-H3L1 (antibody, V domains shown)
VH: B1 VH with I48M, A68V, L70M, V72R, I74T, A79V, S97A, S98R
VL: B6 VL with T20N, G41H, T72N
notes: also called Hv3 Lv1
B12: IP14 Hv0 Lv8 (antibody, V domains shown)
VH: B2 VH
VL: B6 VL with E1D, G41H, K49Y, I58V, P67S, G100Q, L104V
B13: IP14-H2L7 (antibody, V domains shown)
VH: B1 VH
VL: B6 VL with E1D, T20N, G41H, K49Y, I58V, P67S, T72N, G100Q, L104V
notes: also called Hv2 Lv7
B14: IP14 Hv0 Lv3 (antibody, V domains shown)
VH: B2 VH
VL: B6 VL with E1D, K49Y, V78L
B15: IP14-H2L3 (antibody, V domains shown)
VH: B1 VH
VL: B6 VL with E1D, K49Y, V78L
notes: also called hIP14-H2L3; Hv2 Lv3
B16: IP14 Hv0 Lv7 (antibody, V domains shown)
VH: B2 VH
VL: B6 VL with E1D, T20N, G41H, K49Y, I58V, P67S, T72N, G100Q, L104V
B17: IP14 Hv0 Lv1 (antibody, V domains shown)
VH: B2 VH
VL: B6 VL with T20N, G41H, T72N
B18: IP14-H1L3 (antibody, V domains shown)
VH: B1 VH with A16H, L86P
VL: B6 VL with E1D, K49Y, V78L
notes: also called hIP14-H1L3; Hv1 Lv3
B19: IP14-H6L4 (antibody, V domains shown)
VH: B6 VH with Q13K, G16H, Q43K, T71S, S75A, T78S
VL: B3 VL
notes: also called Hv6 Lv4
B20: IP14-H1L1 (antibody, V domains shown)
VH: B1 VH with A16H, L86P
VL: B6 VL with T20N, G41H, T72N
notes: also called Hv1 Lv1
B21: IP14-H2L8 (antibody, V domains shown)
VH: B1 VH
VL: B6 VL with E1D, G41H, K49Y, I58V, P67S, G100Q, L104V
notes: also called hIP14-H2L8; Hv2 Lv8
B22: IP14-H5L1 (antibody, V domains shown)
VH: B6 VH
VL: B6 VL with T20N, G41H, T72N
notes: also called Hv5 Lv1
B23: IP14-H5L7 (antibody, V domains shown)
VH: B6 VH
VL: B6 VL with E1D, T20N, G41H, K49Y, I58V, P67S, T72N, G100Q, L104V
notes: also called Hv5 Lv7
B24: IP14-H3L2 (antibody, V domains shown)
VH: B1 VH with I48M, A68V, L70M, V72R, I74T, A79V, S97A, S98R
VL: B6 VL
notes: also called Hv3 Lv2
B25: IP14-H1L8 (antibody, V domains shown)
VH: B1 VH with A16H, L86P
VL: B6 VL with E1D, G41H, K49Y, I58V, P67S, G100Q, L104V
notes: also called hIP14-H1L8; Hv1 Lv8
B26: IP14-H6L6 (antibody, V domains shown)
VH: B6 VH with Q13K, G16H, Q43K, T71S, S75A, T78S
VL: B1 VL
notes: also called Hv6 Lv6
B27: IP14-H6L1 (antibody, V domains shown)
VH: B6 VH with Q13K, G16H, Q43K, T71S, S75A, T78S
VL: B6 VL with T20N, G41H, T72N
notes: also called Hv6 Lv1
B28: IP14-H1L7 (antibody, V domains shown)
VH: B1 VH with A16H, L86P
VL: B6 VL with E1D, T20N, G41H, K49Y, I58V, P67S, T72N, G100Q, L104V
notes: also called Hv1 Lv7
B29: IP14-H6L2 (antibody, V domains shown)
VH: B6 VH with Q13K, G16H, Q43K, T71S, S75A, T78S
VL: B6 VL
notes: also called hIP14-H6L2; Hv6 Lv2
B30: IP14-H5L3 (antibody, V domains shown)
VH: B6 VH
VL: B6 VL with E1D, K49Y, V78L
notes: also called hIP14-H5L3; Hv5 Lv3
B31: IP14-H2L1 (antibody, V domains shown)
VH: B1 VH
VL: B6 VL with T20N, G41H, T72N
notes: also called Hv2 Lv1
B32: IP14-H1L2 (antibody, V domains shown)
VH: B1 VH with A16H, L86P
VL: B6 VL
notes: also called Hv1 Lv2
B33: IP14 Hv0 Lv4 (antibody, V domains shown)
VH: B2 VH
VL: B3 VL

Each binder was assayed against T1, recombinant human midkine (huMK) (assay: ELISA, plate coated with huMK).
Experimental: (§1) The binding specificity and affinity of the humanised anti-MK antibodies to recombinant human MK (huMK) and murine MK (muMK) was assessed by ELISA. ELISA plates (Nunc Immuno MaxiSorp 96 well flat-bottom were coated with 100 uL of 2 ug/mL of either huMK or muMK in 2% BSA/PBS (overnight at room temperature). After washing, blocking (1 h at 37° C.), and washing again, the humanised anti-MK and chimeric antibodies described in Example 1 were analysed for binding to huMK or muMK at concentrations ranging between 3 μg/ml and 0.00004 μg/ml in 2% BSA/PBS (1 h at 37° C.). After washing, the binding of antibody was detected with goat anti-mouse IgG (Fab specific)-HRP conjugate (Sigma, Cat. No. A9917) and SigmaFast OPD substrate (Sigma, Cat. No. P9187). The reaction was stopped with 3 M HCl, absorbance read at 490 nm on a Dynex Technologies MRX TC II plate reader and the binding curves plotted. Binding affinity data for the humanised anti-MK antibodies to huMK and muMK are presented in Table 6 and Table 7 respectively, and in FIG. 3.

Binder	EC50 [nM]
B1	0.054
B2	0.132
B3	0.053
B4	0.053
B5	0.05
B6	0.069
B7	0.073
B8	0.095
B9	0.069
B10	0.1
B11	0.091
B12	0.08
B13	0.058
B14	0.09
B15	0.068
B16	0.092
B17	0.093

Binder	EC50 [nM]
B18	0.063
B19	0.073
B20	0.056
B21	0.056
B22	0.062
B23	0.067
B24	0.082
B25	0.05
B26	0.088
B27	0.097
B28	0.043
B29	0.041
B30	0.068
B31	0.093
B32	0.065
B33	0.108

What follows are binders tested against T2, recombinant murine midkine (muMK) (assay: ELISA, plate coated with muMK).
Experimental: as §1

Binder	EC50 [nM]
B1	0.073
B3	0.078
B4	0.087
B5	0.081
B6	0.054
B7	0.044
B9	0.051
B10	0.087
B11	0.12
B13	0.071
B15	0.081
B18	0.089
B19	0.051
B20	0.044
B21	0.069
B22	0.052
B23	0.059
B24	0.1
B25	0.089
B26	0.048
B27	0.032
B28	0.081
B29	0.072
B30	0.05
B31	0.09
B32	0.051

Source: patent US20170240628A1 (CELLMID, published 2017)
